{"source": "paper PMC3045599", "biological_target": "NrdA-a/NrdA-b heterodimer of phage Aeh1, wild type (phage Aeh1)", "assay": "GEMMA"}
{"substance": "NrdA-a/NrdA-b heterodimer of phage Aeh1, wild type (complex)", "values": [{"measurement": "stoichiometry N", "value": 2}]}
